The subject of data set [1] is Saccharomyces cerevisiae. Description: protein stability index of tFT-peptide fusion in wild type (PSI (0-1 scale)); higher = more stable (slower turnover). Conditions: genetic background: wild type.
Data set [2] relates to Saccharomyces cerevisiae. In words: protein stability index of tFT-peptide fusion in deletion strain of DOA10 (PSI (0-1 scale)); higher = more stable (slower turnover). The procedure:
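MPS profiling in S. cerevisiae of two library types built from selected 12-aa C-degron peptides (IN1, IN2, LN1, LN3, VN2, R1-R5, W1-W3, Atg1 and Rpa12 C-termini): saturation mutagenesis libraries and C-terminal +1 capping libraries (13 aa). Each peptide is fused to the C-terminus of a sfGFP-mCherry timer, after a GGGS linker. Cells are FACS-sorted into 8 mCherry/sfGFP bins and sequenced. PSI runs from 0 (unstable) to 1 (stable), measured once in wild type and in the das1Δ or doa10Δ background.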

The subject of data set [3] is Saccharomyces cerevisiae. Description: protein stability index of tFT-peptide fusion in deletion strain of DAS1 (PSI (0-1 scale)); higher = more stable (slower turnover).
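Throughout, for protein stability index of tFT-peptide fusion in deletion strain of DAS1: PSI is a weighted mean of each variant's read distribution over the sorted stability bins, computed only for variants having over 10 reads in total.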
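Throughout, for protein stability index of tFT-peptide fusion in deletion strain of DOA10: PSI per variant is the weighted mean of its sequencing read distribution over the sorted stability bins, counting only variants with over 10 reads summed across bins.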
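Throughout, for protein stability index of tFT-peptide fusion in wild type: PSI derived as read-weighted mean over the 8 sorting bins, only variants exceeding 10 total reads kept, mCherry placed adjacent to the peptide and sfGFP distal.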

With AIRLPMCPLLLR, the protein stability index in data set [1] turned out to be 0.27; in data set [2], 0.649.
With AISLPMCPLLLR, the protein stability index in data set [1] turned out to be 0.226; in data set [2] it was 0.655.
Take AITFPMCPLLLR: the results for the protein stability index in data set [1] and in data set [2] were 0.3 and 0.676, respectively.
On to AITLIMCPLLLR, for which the results for the protein stability index in data set [1] and in data set [2] were 0.465 and 0.658, respectively.
With AITLPGCPLLLR, the protein stability index in data set [1] is 0.327; in data set [2], 0.683.
Regarding AITLPMCPALLR, the protein stability index is 0.493 in data set [1] and 0.672 in data set [2].
AITLPMCPLLLC: the protein stability index in data set [1] turned out to be 0.134; in data set [2], 0.184.
As for AITLPMCPLLLRK, the protein stability index is 0.43 in data set [1] and 0.67 in data set [2].
For the sequence AITLPMCPLLLRM, the protein stability index in data set [1] worked out at 0.172; in data set [2], 0.573.
As to AITLPMCPLLLRQ, the protein stability index turned out to be 0.34 in data set [1] and 0.634 in data set [2].
Turning to AITLPMCPLLLS, the protein stability index in data set [1] was 0.405; in data set [2], 0.443.
Consider AITLPMCPLLLT, for which the protein stability index is 0.449 in data set [1] and 0.491 in data set [2].
In the same order, the values of AITLPMCPLLPR are 0.667 and 0.673.
Take AITLPMHPLLLR: the figures for the protein stability index in data set [1] and in data set [2] were 0.25 and 0.643, respectively.
In the same order, the values of AITLRMCPLLLR are 0.389 and 0.643.
For the sequence AITQPMCPLLLR, the values for the protein stability index in data set [1] and in data set [2] were 0.508 and 0.701, respectively.
Turning to ATTLPMCPLLLR, the figures for the protein stability index in data set [1] and in data set [2] were 0.383 and 0.673, respectively.
With CGVSLPILLFFR, the protein stability index amounted to 0.0581 in data set [1] and 0.622 in data set [2].
Take CLVMLPILLFFR: the protein stability index in data set [1] came to 0.0682; in data set [2], 0.426.
VRGAVGGWMLVG: the protein stability index in data set [1] was 0.456; in data set [3] it was 0.698.
On to VRGAVGGWQLVG, for which the protein stability index in data set [1] is 0.28; in data set [3] it was 0.689.
Take VRGAVGGWRIVG: the protein stability index in data set [1] was 0.325; in data set [3] it was 0.678.
For VRGAVGGWRLVGC, in that order: 0.638 and 0.694.
VRGAVGGWRLVS: the protein stability index in data set [1] turned out to be 0.148; in data set [3], 0.686.
As to VRGAVGGWSLVG, the protein stability index in data set [1] was found to be 0.633; in data set [3], 0.689.
Consider VRGAVGGWTLVG, for which the protein stability index was found to be 0.49 in data set [1] and 0.664 in data set [3].
Regarding VRGAVGNWRLVG, the protein stability index in data set [1] turned out to be 0.14; in data set [3], 0.69.
In the same order, the values of VRGAVKGWRLVG are 0.148 and 0.68.
With VRGCVGGWRLVG, the protein stability index in data set [1] worked out at 0.148; in data set [3], 0.655.
In the case of VRGWVGGWRLVG, the values for the protein stability index in data set [1] and in data set [3] were 0.134 and 0.681, respectively.
For the sequence VRNAVGGWRLVG, the protein stability index in data set [1] was found to be 0.137; in data set [3], 0.674.
On to VRQAVGGWRLVG, for which the results for the protein stability index in data set [1] and in data set [3] were 0.132 and 0.684, respectively.
Consider VRTAVGGWRLVG, for which the protein stability index in data set [1] is 0.137; in data set [3], 0.678.
For VRYAVGGWRLVG, the protein stability index in data set [1] came out at 0.0921; in data set [3], 0.68.
For VSGAVGGWRLVG, the protein stability index stood at 0.143 in data set [1] and 0.672 in data set [3].
In the case of VVGAVGGWRLVG, the protein stability index in data set [1] came to 0.125; in data set [3], 0.69.
In the same order, the values of YLIQPLPVQFLN are 0.0777 and 0.624.

The values above are taken from the supplement of paper PMC10724198.
